From the DeepSol protein solubility set

Experiment: soluble on expression in E. coli; label from the status in PepcDB or PDB records

Sequence | soluble on expression in E. coli
SILEGGGVMNLNPGNNLLHQPPAWTDSYSTCNVSSGFFGGQWHEIHPQYWTKYQVWEWLQHLLDTNQLDANCIPFQEFDINGEHLCSMSLQEFTRAAGTAGQLLYSNLQHLKWNGQCSSDLFQSTHNVIVKTEQTEPSIMNTWKDENYLYDTNYGSTVDLLDSKTFCRAQISMTTTSHLPVAESPDMKKEQDPPAKCHTKKHNPRGTHLWEFIRDILLNPDKNPGLIKWEDRSEGVFRFLKSEAVAQLWGKKKNNSSMTYEKLSRAMRYYYKREILERVDGRRLVYKFGKNARGWRENEN | soluble
MSDDGGFLSSQSSRELTEDDHEKLAKQTSISDFKRNKLEIDARKNWDKFYHRNKNNFFKDRNWSAEDLKMMCPDIDFEKEISYLEAGCGVGNMLFPLVAEIPNLKLFAFDFSDNAVKLLEERAKELELSVATSVVDLSIPSVSSPFEEQVDLATLIFVLSAIHPEKHQISAENVRKMIKIGGSVVVRDYGINDHAMIRFGREARISDRFYVRQDGTRAYYFDLNELSEVFEKSGFRCVRKEYLHRMTVNHQKGLKAPRIFVQARFIRES | not soluble
MVALPTINQLVRKGREKVRKKSKVPALKGAPFRRGVCTVVRTVTPKKPNSALRKVAKVRLTSGYEVTAYIPGEGHNLQEHSVVLIRGGRVKDLPGVRYHIVRGVYDAAGVKDRKKSRSKYGTKKPKEAAKTAAKK | soluble
MAHHHHHHMGTLEAQTQGPGSMMAASHDDDTVDGLATAVRGGDRAALPRAITLVESTRPDHREQAQQLLLRLLPDSGNAHRVGITGVPGVGKSTAIEALGMHLIERGHRVAVLAVDPSSTRTGGSILGDKTRMARLAVHPNAYIRPSPTSGTLGGVTRATRETVVLLEAAGFDVILIETVGVGQSEVAVANMVDTFVLLTLARTGDQLQGIKKGVLELADIVVVNKADGEHHKEARLAARELSAAIRLIYPREALWRPPVLTMSAVEGRGLAELWDTVERHRQVLTGAGEFDARRRDQQVDWTWQLVRDAVLDRVWSNPTVRKVRSELERRVRAGELTPALAAQQILEIANLTDR | soluble
MSLKSIFISGAANGIGKAVALKFLHEGWLVGAYDLAEITYSHPNLRWGYLNVRQSESWDKALEDFATHTGGTIDVVDNNAGVIIEGPLQDAEEGSVDKLLAINVNGVTLGARAAHPYLARTPGAQLLNMSSASAVYGQPQIAVYSASKFYVAGLTEALNLEWRKDDIRVVDVWPLWAKTDLVNGVKAKSLKRLGVRITPEQVAQAVWDAVHPKSRWAKGKVHHGVSKLDKALYLMKSLSPDRVAMCFARLIAGEGHHHHHH | soluble
MREWKSQDAWKQHSLRLCFGVWPGTEFLHRPRAVHRRSGVVCSQMQTEDSHPETPQVPKESLQEEKDSSPATDASFIQSQDGKTVFLDRRTERRIQRGFVLTERGPRSIWKPAGTSSQRNERVPRRAAARGGAGPPDTTPQLATVRVLVLGANHVAQRLAELLSSHSRVCGCYFVSETTDEAAIESMKKYAYALPLRSALNDDEVVRVAEWVLADYVFLVPTGETHDDGVSLKDKERLERTLAQNRVTFMDENLTGLLLENPSLIDALFRARDSLEA | not soluble
MRQYVCCNYNEKEIKMKKFHFTDTSLFWGFSEEEAESVLKCLSAVNKTYKKDEYIFRMGDTITSVGMVLTGSVQVIREDYWGNRQIIAVMGEGQLFGESYACAGGEPLMVSVMAEENTEVLFLEVGRLLTVCSMACRFHSRVIQNLLKVIAGRNLTLTTKIDHMSKKTIREKVLSYLSYQAEKQGKNRFEIPFNRQQLADYLAVDRSALSAELSKMQKEKLISYDRNHFILP | not soluble
MSSDIDELRREIDIVDVISEYLNLEKVGSNYRTNCPFHPDDTPSFYVSPSKQIFKCFGCGVGGDAIKFVSLYEDISYFEAALELAKRYGKKLDLEKISKDEKVYVALDRVCDFYRESLLKNREASEYVKSRGIDPKVARKFDLGYAPSSEALVKVLKENDLLEAYLETKNLLSPTKGVYRDLFLRRVVIPIKDPRGRVIGFGGRRIVEDKSPKYINSPDSRVFKKGENLFGLYEAKEYIKEEGFAILVEGYFDLLRLFSEGIRNVVAPLGTALTQNQANLLSKFTKKVYILYDGDDAGRKAMKSAIPLLLSAGVEVYPVYLPEGYDPDEFIKEFGKEELRRLINSSGELFETLIKTARENLEEKTREFRYYLGFISDGVRRFALASEFHTKYKVPMEILLMKIEKNSQEKEIKLSFKEKIFLKGLIELKPKIDLEVLNLSPELKELAVNALNGEEHLLPKEVLEYQVDNLEKLFNNILRDLQKSGKKRKKRGLKNVNT | soluble
MGGDADSPRERIEALAEDDHVEMRRAVDSAITSDAAAIIVIAGVGGATGSVIAPKLTDALQRIYDRPVYAVSVLPATHEEVPPENPARAIAAFESAANAQLVFDNDAWVDDRNDVEDVTDGLNAELAMRLGALFSAGEAVTAESVGQRVVDASEVISTLDEGGLATIGFARQPLGTDGDDGSLLDRARELVGMDETTVDEVESIKAVETTLRQATNGRLTFDCPRDAARSGLLVVSGPPEWLHQTAVSDGQSWLADEIGSVQLRTGDNPMPGGDELTILVLLGGIRGAPRIKEIQAATDLEHHHHHH | not soluble
MIDFSNIETYWPMTSSAFGLFITQGGLKPIFTSLNHMWYSKYGYLTERKAKLKEIENEYIYEIEKRKLENQEKFKNEIDCEFSKIPQTSLKEPVEYILYPAINESEQYLSNETLRNMFARTIASTFNQDKEKDLHSAFVQIIKQMTPLDAQNLLLINQEGNNLIANLQIGVHYSKENLSGTVNKANNIYLSKLDYSPDIIASSIDNLTRLGLIKVDYLHYPLDSNYESIKQTTIYKSLESEINTLNLFKTSNTKYDIKIEKGKVSLTDFGKKFISVCLE | not soluble
MIPMEELKVKKITNGTVIDHIDAGKALMVFKVLNVPKETSVMIAINVPSKKKGKKDILKIEGIELKKEDVDKISLISPDVTINIIRNGKVVEKLKPQIPDEIEGTLKCTNPNCITNKEKVRGKFKIESKNPLKIRCYYCEKFLNEVIFE | soluble
MNPNTVPTPARGAIRWEAHTCLPLLPNQDMSALLRYRDNGFHHVSVNVGMDMTAVGDVMQVIAGFRQWLIKHPENFMLAGTLADLQRARVQDKLAVSFDLEGSNMLLQDQAMVRLYADLGVRQMLLAYNLDNSCAGGCHGSGMGLTALGREFVGAINSAGIVMDCSHASKRASMEIIELSQRPVVFSHTNIKAVYDHPRTVDDEQIMACVESGGVIGLTGMGIFLGDPQASVEAFVRQIDYLAERAGTAHIGLGLDIELHPDDKDLAEGVNEDDWWPKEFYGGINGHRQLQPEALGQVAEALLRIGYDAAQINGIFGGNFMRVAQATWP | not soluble
MLHRIANGIIEEAAENGCTIIAFEELSGTRDRLPEASWGHKWAFERLYEYVKYKSELHGIDVAVVDPENTSRRCSHCGFTHPDNRDSEAFVCLKCGYENHADYNAAKNIGLRYLRRNQTGDGGGAPVGVRLNRGTLNANGEYETPAGDSGQSGSPRESPTLNEARSSDRAKLEHHHHHH | not soluble
LDGVLVPESGILVSVGQDVDSVNDYASALGTIPAGVTNYVGIVNLDGLNSDADAGAGRNNIAELANAYPTSALVVGVSMNGEVDAVASGRYNANIDTLLNTLAGYDRPVYLRWAYEVDGPWNGHSPSGIVTSFQYVHDRIIALGHQAKISLVWQVASYCPTPGGQLDQWWPGSEYVDWVGLSYFAPQDCNWDRVNEAAQFARSKGKPLFLNESTPQRYQVADLTYSADPAKGTNRQSKTSQQLWDEWFAPYFQFMSDNSDIVKGFTYINADWDSQWRWAAPYNEGYWGDSRVQANALIKSNWQQEIAKGQYINHSETLFETLGYGSTHHHHHH | soluble
SLEKRQGLEDIGRVRATIKNEFPSLTLLTQDWGDWDETYKFSQNHNQEYLEANVPSLTTLSKSTKIDFLALYDLNAIELFKGAYHPDMEREVNLHSTPSIRSLVASVLKTNREKKGLFKTDEGLLALVARPILTSEGRGPSHGVIIMGRFLSQLLLSSVGKKCPIPFELFIQDDKRLSAPEKALFAKLSATAPRFTPVFHQGFVYQTYPDIE | not soluble
MAHHHHHHMGYLLEREQQRYSRHESAESATAFFASRGQTIDILGRTDPNQIKGNFFGLELYQDAMKVVMQRYTPEKRLTSADLWQPNALGDAPPPRHTLHRKLDDFLYLIVQEGATGKWTIPHTARKDDESLRMTADRAISSQNSEGLDCYVWSNAPQATVFLKDDNTRLFIYAATYLAGRPQFASFEPKPKDHAWVTRHELLQYSDTFKSAELLKALLDISADGTFEA | not soluble
TALADVVITGYQTLSKERATGSFDKVDSSVLSSRPTADLSTALQGLVAGMQATEKEDGSIDFLIRGSSSLYADKKPLLVVDGFPIQGDFSSINPNDVESVTVLKDAAAASIWGARSANGVIVVTTKKGKKDK | not soluble
MGSDKIHHHHHHMKWCSSMSDPKPCIICVAITGSVPTKAANPAVPITVAEQIESTHAAFEAGAAICHAHVRNDDETPSSDPEKFARLKEGVEGHCPGMIVQLSTGGRSGASKERGGMLPLRPDMASLSVGSNNFPTRVYENPPDLVDWLAAEMRTYDIKPEIEAFDLSHIHHAALMHQRGQLAGHPYVQFVMGVKNAMPADRETFDFYVATMTRLLPESEWCAAGIGPNQIVLNEWAIAAGGHARTGLEDNVRWDKQTLAPSNAALVERTAEICEKNGRPVATTAQAREILGLRT | not soluble
MGSDKIHHHHHHMTDKLSPRGRPLYLGSRGRHTRFSRIADSVADSFNLSKELTTATLLAAVNSALRGKASITINQDWDEPVNAFFLVCAESGGGKSPSNNFFKQPQLNFQTEWNEQNKNLYLRASVDKKYFAQKLKKHTQQAAELDYGNPKALEQYHAETTRLTEAYEKALRCQPLELFVDDVTNKSLIEAMSRQDGRIAIMEPEVSAFRHIVRAKEVSPILDTILKSFSGERIQLNRAGEPALTIERPILALNIMVQPPIMMQLAKNKAIQGRGILGRFFVTIVEKPRYSRFRHDPIEVPPEVRFEYQDTIYKILTTVEKSKDLLSFSLSDEATEAWLAVKDDVESSIPHNPPPGYGEWKAKAGKHLLHLACLVHIFEHQASNTIIDKRSFELAELLFNFFDKNMWSMLRFMYPEIDFLVAVKALSSGKLYNMGEFSARDMQRALGTYNSTQIAQGIDWLLDNRAIDPIEHRHIENSAKTTMHVGRKKSPTYKIIDAEWHYLRDELL | not soluble
MSEFSPLRRKILLGGAATAGLSLFPSFSFASQFAETPRKLALSNLHTGEELKTEYFNGRQYQSAELHKLNHLCRDFRRNESIEMDKRLFDQLSAIQNVIGCDTQVQIISGYRSPATNEMLRGKSHGGVAKKSLHMLGKAMDFRLEGVPLAEVRKAALSLKAGGVGYYPGSNFVHIDTGRVRFW | not soluble
MALDQSLVGRSYPPTAPYEVGREKIREFAEAVGDANPAYTDAEAAKALGHPDVIAPPTFVFSITFKAAGQVIEDPQLGLDYSRVVHGDQKFSYARPVRAGDRLTVTSTIEAIKSMAGNDILDIRGEVHDEAGEHVVTAWTKLVARAAEEALEHHHHHH | soluble
MTEHTGLWLYAVADQLPDGRLPCPAGIDEAPVEAIAHDGLAAVVSPVDLHHYGEEALARRLEDFDWLAATANRHHAVIEAVHHLSTTVPMRLATVYTEPRRVSTLLAEQHDLLRRALDSVAGHTEWGVKAFAVNRPQAPPAAGGEESGAAYLRRRRAELANADAVRQEVWDAAQHAFHELGLLAVAQRRHRPQDAKLTGKPEPMLLNGSFLVEDTEQDAFTKAVSTLTADHPELEIQLSGPWPPYSFAGLAVEA | not soluble
MGHHHHHHSHGSCEVLRLLDLGASPSYRRWIWQHLELIDGRPLKTHLSEYSPMERFKEFQIKSYPLQDFSSLKLPHLKKAWGLQGTSFSRKIRTSGDTLPKMLGPKIQSRPAQSIKCAMINIKPGELPKEAAVGAYVKVHTVEQGEILGLHQAFLPEGECDTRPLILMSLGNELIRIRKEIFYELIDNDDEMIKKLLKLNIAFPSDEDMCQKFLQQNSWNIFRKDLLQLLVEPCQSQLFTPNRPKKREIYNPKSVVLDLCSINKTTKPRYPIFMAPQKYLPPLRIVQAIKAPRYKIRELLA | not soluble
